This note sets out measurements from paper PMC8945367, “Transcription Regulation of Tceal7 by the Triple Complex of Mef2c, Creb1 and Myod” (Biology, 2022).

In this assay the target is 3×HA-Creb1 (UniProt Q01147-2 1-327). As to the kind of experiment: cell-based or functional assay.
Sequence of 3×HA-Creb1 (Q01147 whole entry): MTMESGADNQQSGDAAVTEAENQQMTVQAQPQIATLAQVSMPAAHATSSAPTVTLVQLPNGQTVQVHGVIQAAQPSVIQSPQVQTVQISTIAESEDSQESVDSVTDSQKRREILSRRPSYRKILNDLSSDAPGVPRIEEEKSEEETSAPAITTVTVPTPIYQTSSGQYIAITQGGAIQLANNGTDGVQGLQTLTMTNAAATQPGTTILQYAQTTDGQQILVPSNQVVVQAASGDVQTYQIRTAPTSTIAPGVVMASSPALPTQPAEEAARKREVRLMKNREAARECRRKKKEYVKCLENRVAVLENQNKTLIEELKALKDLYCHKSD

B1: 6×Myc-Mef2c (natural protein)
chain: not shown
On to B1, for which the “transactivation of Reporter II (4×(Mef2#3–CRE#3–E#4) luciferase) by Mef2c and Creb1 together in HEK293T cells; 2.8-fold by Mef2c and 3.7-fold by Creb1 alone” value came to 8.3 fold.
